Reference: IntAct's records for PubMed 15983381

B1: Parkinson disease protein 7 (Homo sapiens), Q99497 (parent)
chain: MASKRALVILAKGAEEMETVIPVDVMRRAGIKVTVAGLAGKDPVQCSRDVVICPDASLEDAKKEGPYDVVVLPGGNLGAQNLSESAAVKEILKEQENRKGLIAAICAGPTALLAHEIGFGSKVTTHPLAKDKMMNGGHYTYSENRVEKDGLILTSRGPGTSFEFALAIVEALNGKEVAAQVKAPLVLKD

Variants of: B1
Conditions: with daxx_human DAXX

Row | effect of a mutation on the interaction | Variant
1 | decreasing interaction | L166P
